Measured values published in IntAct's records for PubMed 18547146.

B1: BH3-interacting domain death agonist (Mus musculus), P70444 (parent)
chain: MDSEVSNGSGLGAEHITDLLVFGFLQSSGCTRQELEVLGRELPVQAYWEADLEDELQTDGSQASRSFNQGRIEPDSESQEEIIHNIARHLAQIGDEMDHNIQPTLVRQLAAQFMNGSLSEEDKRNCLAKALDEVKTAFPRDMENDKAMLIMTMLLAKKVASHAPSLLRDVFHTTVNFINQNLFSYVRNLVRNEMD

Variants of: B1
Settings: with BCL2L1, Q07817-1
Chain of BCL2L1, Q07817-1 (Q07817 whole entry): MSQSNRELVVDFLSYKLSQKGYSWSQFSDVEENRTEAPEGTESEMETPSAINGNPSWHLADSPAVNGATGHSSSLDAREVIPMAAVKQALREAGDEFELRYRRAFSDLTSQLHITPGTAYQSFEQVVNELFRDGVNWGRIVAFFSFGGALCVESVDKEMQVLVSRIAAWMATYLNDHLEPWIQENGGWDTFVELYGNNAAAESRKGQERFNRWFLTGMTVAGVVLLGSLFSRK

Question: For MDSEVSNGSGLGAEHITDLLVFGFLQSSGCTRQELEVLGRELPVQAYWEADLEDELQTDGSQASRSFNQGRIEPDSESQEEIIHNIARHLAQIGDEAAHNIQPTLVRQLAAQFMNGSLSEEDKRNCLAKALDEVKTAFPRDMENDKAMLIMTMLLAKKVASHAPSLLRDVFHTTVNFINQNLFSYVRNLVRNEMD [M97A;D98A], which “effect of a mutation on the interaction” value is on record?
Answer: Its value is “disrupting interaction”.
